The source of these data is patent US20240101667A1 (University of Texas, published 2024).

The target in assay [1] is T1, LILRB3 with amino acids 509-511 mutated from QEE to AAA (human, UniProt O75022 24-631).
T1 construct: also called B3 AAA mutant; not shown: hFc tag, per the general co-immunoprecipitation method
As to the kind of experiment: co-immunoprecipitation in 293T cells. An excerpt:
(§1) Western blotting and co-immunoprecipitation. Cells were lysed with RIPA buffer containing protease inhibitor (Roche Diagnostic). Samples were mixed with 2×SDS loading buffer and separated by SDS-PAGE. After transfer to nitrocellulose membranes, the protein was detected with specific primary antibodies and HRP-conjugated secondary antibodies. […] For immunoprecipitation, cells were lysed with Pierce IP Lysis Buffer (Thermo Fisher Scientific, 87787). […] Dynabeads protein A (Thermo Fisher Scientific, 10001D) was used in all co-immunoprecipitation.

Assay [2] has as its target T2, LILRB3 with deletion of amino acids 505-515 (human, UniProt O75022 24-631).
T2 construct: Deletion mutant; not shown: hFc tag, per the general co-immunoprecipitation method
As to the kind of experiment: co-immunoprecipitation in 293T cells.
Source text: as §1

Assay [3] deals with FLAG-cFLIP (exogenous, expressed in 293T cells) (human, UniProt O15519 1-480). As to the kind of experiment: co-immunoprecipitation of FLAG-cFLIP with hFc-tagged LILRB3 constructs in 293T cells (FIG. 5e).
Source text: as §1

Assay [4] addresses T3, recombinant LILRB3 (human LILRB3 extracellular domain protein) (human, UniProt O75022 24-443).
T3 construct: extracellular domain; The panning method names the 'human LILRB3 extracellular domain protein'; The Octet method says only 'recombinant LILRB3', and the antigen of the ELISA is not described; also called LILRB3-ECD
As to the kind of experiment: Octet (BLI), antibody on protein A biosensors, recombinant LILRB3 in solution. As for the experimental part: Affinity measurement and epitope binning: Affinity measurement and epitope binning were done as described previously (Gui et al., 2019). Briefly, antibody affinity was analyzed with the Octet RED96 instrument. […] ForteBio's data analysis software was used to extract association and dissociation rates assuming a 1:1 binding model. The Kd was calculated as the ratio koff/kₒₙ. […] In these epitope binning assays, primary antibodies (40 μg/ml) were loaded onto protein A biosensors, and remaining Fc-binding sites on the sensor were blocked with a human non-targeting IgG (200 μg/ml). […] Raw data were processed using ForteBio's Data Analysis Software 7.0. Antibody pairs were assessed for competitive binding.

Sequence of FLAG-cFLIP (exogenous, expressed in 293T cells) (O15519 whole entry): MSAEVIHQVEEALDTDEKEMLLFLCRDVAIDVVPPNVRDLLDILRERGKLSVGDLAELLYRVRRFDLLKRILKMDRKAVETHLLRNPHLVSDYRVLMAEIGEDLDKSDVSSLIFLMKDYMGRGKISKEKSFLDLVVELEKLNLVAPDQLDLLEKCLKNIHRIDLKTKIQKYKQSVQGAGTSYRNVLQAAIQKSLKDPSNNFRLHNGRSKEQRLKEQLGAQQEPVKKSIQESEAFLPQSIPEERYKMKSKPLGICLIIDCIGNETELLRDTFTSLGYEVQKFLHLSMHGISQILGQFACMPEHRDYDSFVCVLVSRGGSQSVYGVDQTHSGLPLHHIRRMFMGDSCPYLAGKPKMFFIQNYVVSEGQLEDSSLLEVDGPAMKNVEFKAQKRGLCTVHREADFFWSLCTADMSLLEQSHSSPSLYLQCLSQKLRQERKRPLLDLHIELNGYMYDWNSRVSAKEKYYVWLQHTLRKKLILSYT

B1: HA-TRAF2 (exogenous, expressed in 293T cells) (other, human, UniProt Q12933 1-501, looked up)
chain: MAAASVTPPGSLELLQPGFSKTLLGTKLEAKYLCSACRNVLRRPFQAQCGHRYCSFCLASILSSGPQNCAACVHEGIYEEGISILESSSAFPDNAARREVESLPAVCPSDGCTWKGTLKEYESCHEGRCPLMLTECPACKGLVRLGEKERHLEHECPERSLSCRHCRAPCCGADVKAHHEVCPKFPLTCDGCGKKKIPREKFQDHVKTCGKCRVPCRFHAIGCLETVEGEKQQEHEVQWLREHLAMLLSSVLEAKPLLGDQSHAGSELLQRCESLEKKTATFENIVCVLNREVERVAMTAEACSRQHRLDQDKIEALSSKVQQLERSIGLKDLAMADLEQKVLEMEASTYDGVFIWKISDFARKRQEAVAGRIPAIFSPAFYTSRYGYKMCLRIYLNGDGTGRGTHLSLFFVVMKGPNDALLRWPFNQKVTLMLLDQNNREHVIDAFRPDVTSSSFQRPVNDMNIASGCPLFCPVSKMEAKNSYVRDDAIFIKAIVDLTGL
notes: also called exogenous HA-TRAF2; not shown: HA tag
Turning to B1, the binding result in assay [1] and in assay [2] was “no binding” each time.

B2: B3ICDhFc (LILRB3 intracellular domain fused to hFc at C-terminus) (Fc fusion)
chain: RRQRHSKHRTSDQRKTDFQRPAGAAETEPKDRGLLRRSSPAADVQEENLYAAVKDTQSEDRVELDSQSPHDEDPQAVTYAPVKHSSPRREMASPPSSLSGEFLDTKDRQVEEDRQMDTEAAASEASQDVTYAQLHSLTLRRKATEPPPSQEGEPPAEPSIYATLAIH
notes: domain: intracellular domain; also called B3ICD fused to human Fc; intracellular domain of LILRB3 alone; not shown: hFc (human Fc)
Turning to B2, the binding result in assay [3] is given as “no binding”.

B3: anti-LILRB3 IgG #26 (antibody, V domains shown)
VH: QVQMVESGGGLVKPGGSLRLSCAASGFTFSDHYLSWIRQAPGKGLEWVSYIDLSGSTVYYGDSVKGRFTISRDNARNSVYLQMNSLRAEDTAVYYCARGHYGLDVWGQGTMVTVSS
VL: NIQMTQSPSTLSASVGDRVTISCRASQSIGTWLAWYQQKPGKAPQLLIYKASSLHSGVPSRFSGSGSGTEFTLTISSLQPDDFATYYCQQYNLYSRTFGQGTKVEIK
notes: Fully human IgG; also called B3-26
As for B3, in assay [4], the binding result is reported as “binds”.

B4: anti-LILRB3 antibody #32 (antibody, V domains shown)
VH: QVQLVQSGAEVKKPGSSVKVSCKASGGTFSSYAISWVRQAPGQGLEWMGGIIPIFGTANYAQKFQGRVTITADESTSTAYMELSSLRSEDTAVYYCARGWNWFDPWGQGTMVIVSS
VL: QSVLTQPPSVSADPGQKVTISCSGSSSNIGKNYVSWYQQLPGTAPKLLIYDDNRRLSGTPDRFSGSKSGTSATLGITGLQTGDEADYYCGAWDSSLSAYVFGTGTTVTVL
notes: Fully human IgG; Tied to clone 'B3-32' only by the clone number; also called B3-32
In the case of B4, in assay [4], the binding result is “binds”.

B5: anti-LILRB3 IgG #1 (antibody, V domains shown)
VH: EVQLVESGGGVVQPGRSLRLSCAASGFTFSSYGMHWVRQAPGKGLEWVAFIRYDGSNKYYADSVKGRFTISRDNSKNTLYLQMNSLRAEDTAVYYCAKAGFSGWYYYGMDVWGQGTMVTVSS
VL: DIVMTQSPSSLSASVGDRLTITCRASQSISTYLNWYQQKPGKAPKLLIYGASSLQSGVPSRFSGSGSGTDFTLTISSLQPEDFATYFCQQSYGLPLTFGGGTKVDIK
notes: Fully human IgG from scFv phage display; also called anti-LILRB3 #1; B3-1
For the molecule B5, in assay [4], the binding result is recorded as “binds”.
